According to patent US20240132615A1:

Columns and labels:
[1] = target: human CD38 on multiple myeloma cells (human) (UniProt P28907); assay: flow cytometry on NCI-H929 BCMA KO cells (BCMA-negative, CD38-positive)
soluble BCMA = soluble BCMA (UniProt Q02223); assay: cell-based or functional assay
Sequence of soluble BCMA (Q02223 1-54 limits assumed): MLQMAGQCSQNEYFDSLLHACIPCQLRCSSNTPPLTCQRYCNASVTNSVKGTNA

Row | Maximum binding (RFI) [1] | Substance | Fold difference to no soluble factor condition (EC50 from % Cytotoxicity), sBCMA (soluble BCMA) | Fold difference to no soluble factor condition (EC50 from % Killing to No Ab), sBCMA (soluble BCMA)
1 | 101 RFI | alnuctamab (bispecific antibody) | 380 fold | 367 fold
2 | 104 RFI | teclistamab (bispecific antibody) | 75 fold | 30 fold
